Assay [1] addresses T1, hIL6R (human, UniProt P08887 20-357).
T1 construct: Purified from culture supernatant of a CHO line; whole entry named; also called human interleukin 6 receptor (purified antigen from hIL6R-CHO supernatant)
T1 sequence: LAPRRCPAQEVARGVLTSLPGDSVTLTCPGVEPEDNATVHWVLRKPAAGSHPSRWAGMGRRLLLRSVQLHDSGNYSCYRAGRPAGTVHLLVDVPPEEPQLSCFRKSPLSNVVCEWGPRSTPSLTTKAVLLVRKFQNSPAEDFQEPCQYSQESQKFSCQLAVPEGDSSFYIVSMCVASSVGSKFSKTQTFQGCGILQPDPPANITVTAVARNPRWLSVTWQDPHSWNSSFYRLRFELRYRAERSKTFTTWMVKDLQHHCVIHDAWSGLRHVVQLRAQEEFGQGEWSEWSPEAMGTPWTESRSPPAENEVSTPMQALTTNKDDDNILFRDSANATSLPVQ
Put plainly: SPR 37C; ADP 10 uM.

The target in assay [2] is T1, hIL6R. Nature of the assay: SPR 37C, mean; ATP 1 uM.
The target of assay [3] is T1, hIL6R. Put plainly: SPR 37C; ADP 100 uM.
Assay [4] deals with T1, hIL6R. Nature of the assay: SPR 37C; AMP 10 uM.
The target in assay [5] is T1, hIL6R. Put plainly: SPR 37C, mean; ATP 100 uM.
Assay [6] concerns the target T1, hIL6R. Nature of the assay: SPR 37C, mean; ATP 10 uM.
Assay [7] concerns the target T1, hIL6R. Nature of the assay: SPR 37C; AMP 100 uM.
In assay [8] the target is T1, hIL6R. Put plainly: SPR 37C, mean; ATP 10 uM; ATP 10 uM; mean.
In assay [9] the target is T1, hIL6R. Put plainly: SPR 37C; ADP 10 uM; ADP 10 uM.
In assay [10] the target is T1, hIL6R. Put plainly: SPR 37C, mean; ATP 1 uM; ATP 1 uM; mean.
For assay [11], the target named is T1, hIL6R. Nature of the assay: SPR 37C, mean; ATP 100 uM; ATP 100 uM; mean.
Assay [12] concerns the target T1, hIL6R. Put plainly: SPR 37C; ADP 100 uM; ADP 100 uM.
The target in assay [13] is T2, mPD1-G1CH2 (mouse).
T2 construct: Whole entry named; also called Fc-fused murine PD1
Put plainly: competition ELISA: mPD1-G1CH2 coated on the plate, mPDL1-G1dCH2His (55 nM) as the blocked ligand; 0, 1, 10 and 100 uM ATP (curves overlap).

Assay [14] has as its target T2, mPD1-G1CH2. The description is as above. This is another data set of the same source.
The target of assay [15] is T3, hCD137.3.4-F.G1d (human).
T3 construct: Portion of the human CD137 extracellular region linked to an antibody constant region
Nature of the assay: ELISA; 500 uM kynurenine, Ab 10 ug/mL.

Assay [16] addresses T4, Biotinylated Fc-fused monkey CD137 (monkey, biotin on the AviTag).
T4 construct: Monkey CD137 extracellular region, antibody constant region and Avitag; whole entry named; also called cyCD137-Fc-BAP
Put plainly: ELISA; 500 uM kynurenine, Ab 10 ug/mL.

Assay [17] deals with T5, hCD137.2.4-F.G1d (human).
T5 construct: Portion of the human CD137 extracellular region linked to an antibody constant region
Put plainly: ELISA; 500 uM kynurenine, Ab 10 ug/mL.

Assay [18] has as its target T6, hCD137.2.3-F.G1d (human).
T6 construct: Portion of the human CD137 extracellular region linked to an antibody constant region
Nature of the assay: ELISA; 500 uM kynurenine, Ab 10 ug/mL.

Assay [19] addresses T7, hCD137.1.2-F.G1d (human).
T7 construct: Portion of the human CD137 extracellular region linked to an antibody constant region
Put plainly: ELISA; 500 uM kynurenine, Ab 10 ug/mL.

The target in assay [20] is T8, hCD137.1-F-G1d (human).
T8 construct: Portion of the human CD137 extracellular region linked to an antibody constant region
Nature of the assay: ELISA; 500 uM kynurenine, Ab 10 ug/mL.

Assay [21] has as its target T1, hIL6R. Nature of the assay: SPR 37C, mean; ATP 0 uM.
Assay [22] has as its target T2, mPD1-G1CH2. Put plainly: competition ELISA: mPD1-G1CH2 coated on the plate, mPDL1-G1dCH2His (55 nM) as the blocked ligand; 1, 10 and 100 uM ATP (curves overlap).

Changes are numbered by the printed parent chain.

B1: H0052-G4T1/L1083-lam1 (antibody, human IgG4 S228P, lambda, V domains shown)
VH: EVQLVESGGDLVKPGGGLRLSCAASGFTFSSYTMNWVRQAPGKGLEWVSSISSRSYHIYYADSVDGRFTISRDNAKNSLYLQMNSLRAEDTAVYYCARYGKLYSLNWVFDYWGQGTLVTVSS
VL: QSALTQPPSASGSPGQTVTISCTGTSTDVGDYAYVSWYQQHPGKAPKLMIYYVDKKPSGVPDRFSGSKSGNTASLTVSGLQAEDEADYFCSLRSPGPYPLFGGGTKLTVLG
For B1, the Kd in assay [1] is 58.1 nM; in assay [2], 1450 nM; in [3], 10.1 nM; in assay [4], 6640 nM; in [5] it was 8.31 nM; in [6] it was 50.5 nM. The molecule further returned a dissociation constant Kd in [7] of 118 nM.

B2: H0041-G4T1/L1088-lam1 (antibody, human IgG4 S228P, lambda, V domains shown)
VH: B1 VH with R54Q, D65K
VL: B1 VL with D54S, S58D
Regarding B2, the Kd in assay [8] came to 320 nM; in assay [9], 10300 nM; in assay [10], 2380 nM; in [11], 48.3 nM; in assay [12] it was 296 nM; in assay [7] it was 1810 nM.

B3: H0002-G4T1/L1058-lam1 (antibody, human IgG4 S228P, lambda, V domains shown)
VH: B1 VH with I58A, D65K
VL: B1 VL with A33N, Y52E, D54V, P95A
Molecule B3 yielded a dissociation constant (Kd) in assay [11] of 1160 nM.

B4: mPD1F2VH-mF18/mPD1F2VL-mk1 (antibody, mouse IgG1, kappa, V domains shown)
VH: EVQLVQSGGGVVQPGRSLRLSCAASGFTFSSYWMSWVRQAPGKGLEWVSAISGSGGSTYYADSVKGRFTISRDNSKNTLYLQMNSLRAEDTAVYYCAKENWGSYFDLWGQGTTVTVSS
VL: DIVMTQSPSTLSASVGDRVTITCRASQGISSWLAWYQQKPGRAPKVLIYKASTLESGVPSRFSGSGSGTDFTLTISSLQPEDFATYYCQQSYSTPWTFGQGTKLEIKR
notes: Control anti-PD1 antibody; also called mPD1F2VH-mF18/mPD1F2VL-mkl
Regarding B4, the “IC50 (read off the curve)” value in assay [13] and in [14] was around 0.6 µg/mL throughout.

B5: dBBK054-P253 (antibody, human IgG1, kappa, V domains shown)
VH: QVQLVQSGAEVKKPGSSVKVSCKASGGWFSYYMISWVRQAPGQGLEWMGVIVPINGAAQYAQKFQGRVTITADESTSTAYMELSSLRSEDTAVYYCARDRPVWRTPRGAFDIWGQGTLVTVSS
VL: DIVMTQSPLSLPVTPGEPASISCRSSQSLVDSNMNTFLSWYLQKPGQSPQLLIYEIQHRFYGVPDRFSGSGSGTDFTLKISRVEAEDVGVYYCMQAMGFPRTFGQGTKVEIKR
In the case of B5, the absorbance ratio stood at 1.3 in [15], 1.1 in assay [16], 1.3 in assay [17] and 1.1 in assay [18].

B6: dBBK102-P253 (antibody, human IgG1, kappa, V domains shown)
VH: QVQLVQSGAEVKKPGSSVKVSCKASGGAFSYYLISWVRQAPGQGLEWMGFVDPIRGGAFYAQKFQGRVTITADESTSTAYMELSSLRSEDTAVYYCARDRPVNAAPRGAFDIWGQGTLVTVSS
VL: B5 VL with D31W, S32N, N33D, M34R, Q57R, H58K, M97Q, G98D
Take B6: the absorbance ratio in [19] was 1.2; in [20] it was 1.2; in assay [15], 1.1; in assay [17], 1.1; in [18] it was 1.1.

B7: MRAH-G4T1/MRAL-k0 (antibody, human IgG4 S228P, kappa, V domains shown)
VH: QVQLQESGPGLVRPSQTLSLTCTVSGYSITSDHAWSWVRQPPGRGLEWIGYISYSGITTYNPSLKSRVTMLRDTSKNQFSLRLSSVTAADTAVYYCARSLARTTAMDYWGQGSLVTVSS
VL: DIQMTQSPSSLSASVGDRVTITCRASQDISSYLNWYQQKPGKAPKLLIYYTSRLHSGVPSRFSGSGSGTDFTFTISSLQPEDIATYYCQQGNTLPYTFGQGTKVEIKR
notes: Non-switch control antibody
As for B7, the Kd in assay [1] came out at 5.64 nM; in assay [2] it was 18.8 nM; in assay [3], 5.96 nM; in [4], 5.33 nM; in [5] it was 18 nM; in assay [21] it was 17 nM. Also, the Kd in assay [6] was found to be 17.9 nM; in [7], 5.46 nM.

B8: H5041-mFa31/L3023-ml0 (antibody, mouse IgG2a, V domains shown)
VH: EVQLVESGGGLVKPGGSLRLSCAASGFTFNTYTMHWVRQAPGKGLEWVSSISSSSKHIYYADSVKGRFTISRDNAKNSLYLQMNSLRAEDTAVYYCARYGRPWELLWVLDYWGQGTLVTVSS
VL: QSALTQPPSASGSPGQTVTISCTGTSTPSGAYDYVSWYQQHPGKAPKLMIYQVSKRPSGVPDRFSGSKSGNTASLTVSGLQAEDEADYFCSTTNSAWDPDFGGGTKLTVLQ
notes: the text of the results names L3021
In the case of B8, the “IC50 (read off the curve)” value in assay [22] was around 0.8 µg/mL.

These data come from patent US20210324099A1 (Chugai, published 2021).
